The conditions of the data set: Homo sapiens, Thermal, fluorescence, whole UniProt chain shown.

B1: Bone morphogenetic protein 2 wild type, P12643 (protein)
chain: MVAGTRCLLALLLPQVLLGGAAGLVPELGRRKFAAASSGRPSSQPSDEVLSEFELRLLSMFGLKQRPTPSRDAVVPPYMLDLYRRHSGQPGSPAPDHRLERAASRANTVRSFHHEESLEELPETSGKTTRRFFFNLSSIPTEEFITSAELQVFREQMQDALGNNSSFHHRINIYEIIKPATANSKFPVTRLLDTRLVNQNASRWESFDVTPAVMRWTAQGHANHGFVVEVAHLEEKQGVSKRHVRISRSLHQDEHSWSQIRPLLVTFGHDGKGHPLHKREKRQAKHKQRKRLKSSCKRHPLYVDFSDVGWNDWIVAPPGYHAFYCHGECPFPLADHLNSTNHAIVQTLVNSVNSKIPKACCVPTELSAISMLYLDENEKVVLKNYQDMVVEGCGCR
The Tm is the temperature at the midpoint of the melting transition. With B1, the Tm is, setting by setting: (pH 2, Citrate) 33 °C; (pH 3, Citrate) 41 °C; (pH 4.5, Acetate) 53 °C; (pH 4.5, Malonate) 63 °C; (pH 5, Acetate) 55 °C; (pH 6, MES) 62 °C. For the same protein, the Tm came out at 63 °C (pH 7, MOPS); 61 °C (pH 8.5, Tris); 59 °C (pH 10, phosphate); 52 °C (pH 10.5, CAPS); 32 °C (pH 11, CAPS).

The values above are taken from FireProtDB (doi:10.1007/s11095-019-2705-5).
